Experimental data taken from US20240100162A1 (published 2024).

Legend:
Assay in all cases: killing
[1] = target: T1, MAGE-B2 peptide, E6C peptide on HLA-A*02:01 (human)
T1 peptide: GVYDGCEHSV

[2] = target: T2, MAGE-B2 peptide, H8M peptide on HLA-A*02:01 (human)
T2 peptide: GVYDGEEMSV

[3] = target: T3, MAGE-B2 peptide, H8R peptide on HLA-A*02:01 (human)
T3 peptide: GVYDGEERSV

[4] = target: T4, MAGE-B2 peptide, E6M peptide on HLA-A*02:01 (human)
T4 peptide: GVYDGMEHSV

[5] = target: T5, MAGE-B2 peptide, E6S peptide on HLA-A*02:01 (human)
T5 peptide: GVYDGSEHSV

[6] = target: T6, MAGE-B2 peptide, H8Q peptide on HLA-A*02:01 (human)
T6 peptide: GVYDGEEQSV

[7] = target: T7, MAGE-B2 peptide, S9H peptide on HLA-A*02:01 (human)
T7 peptide: GVYDGEEHHV

[8] = target: T8, MAGE-B2 peptide, E7T peptide on HLA-A*02:01 (human)
T8 peptide: GVYDGETHSV

[9] = target: T9, MAGE-B2 peptide, H8T peptide on HLA-A*02:01 (human)
T9 peptide: GVYDGEETSV

[10] = target: T10, MAGE-B2 peptide, H8L peptide on HLA-A*02:01 (human)
T10 peptide: GVYDGEELSV

[11] = target: T11, MAGE-B2 peptide, H8D peptide on HLA-A*02:01 (human)
T11 peptide: GVYDGEEDSV

[12] = target: T12, MAGE-B2 peptide, D4P peptide on HLA-A*02:01 (human)
T12 peptide: GVYPGEEHSV

[13] = target: T13, MAGE-B2 peptide, E6Q peptide on HLA-A*02:01 (human)
T13 peptide: GVYDGQEHSV

[14] = target: T14, MAGE-B2 peptide, S9F peptide on HLA-A*02:01 (human)
T14 peptide: GVYDGEEHFV

[15] = target: T15, MAGE-B2 peptide, S9L peptide on HLA-A*02:01 (human)
T15 peptide: GVYDGEEHLV

[16] = target: T16, MAGE-B2 peptide, E7F peptide on HLA-A*02:01 (human)
T16 peptide: GVYDGEFHSV

[17] = target: T17, MAGE-B2 peptide, H8C peptide on HLA-A*02:01 (human)
T17 peptide: GVYDGEECSV

[18] = target: T18, MAGE-B2 peptide, H8I peptide on HLA-A*02:01 (human)
T18 peptide: GVYDGEEISV

[19] = target: T19, MAGE-B2 peptide, H8S peptide on HLA-A*02:01 (human)
T19 peptide: GVYDGEESSV

[20] = target: T20, MAGE-B2 peptide, H8V peptide on HLA-A*02:01 (human)
T20 peptide: GVYDGEEVSV

[21] = target: T21, MAGE-B2 peptide, E7S peptide on HLA-A*02:01 (human)
T21 peptide: GVYDGESHSV

[22] = target: T22, MAGE-B2 peptide, H8A peptide on HLA-A*02:01 (human)
T22 peptide: GVYDGEEASV

[23] = target: T23, MAGE-B2 peptide, S9Y peptide on HLA-A*02:01 (human)
T23 peptide: GVYDGEEHYV

[24] = target: T24, MAGE-B2 peptide, H8E peptide on HLA-A*02:01 (human)
T24 peptide: GVYDGEEESV

[25] = target: T25, MAGE-B2 peptide, S9R peptide on HLA-A*02:01 (human)
T25 peptide: GVYDGEEHRV

[26] = target: T26, MAGE-B2 peptide, S9M peptide on HLA-A*02:01 (human)
T26 peptide: GVYDGEEHMV

[27] = target: T27, MAGE-B2 peptide, G1A peptide on HLA-A*02:01 (human)
T27 peptide: AVYDGEEHSV

[28] = target: T28, MAGE-B2 peptide, S9K peptide on HLA-A*02:01 (human)
T28 peptide: GVYDGEEHKV

[29] = target: T29, MAGE-B2 peptide, E7I peptide on HLA-A*02:01 (human)
T29 peptide: GVYDGEIHSV

[30] = target: T30, MAGE-B2 peptide, E7A peptide on HLA-A*02:01 (human)
T30 peptide: GVYDGEAHSV

[31] = target: T31, MAGE-A4 peptide on HLA-A*02:01 (human)
T31 peptide: GVYDGREHTV

[32] = target: T32, MAGE-B2 peptide, Y3W peptide on HLA-A*02:01 (human)
T32 peptide: GVWDGEEHSV

[33] = target: T33, MAGE-B2 peptide, E7W peptide on HLA-A*02:01 (human)
T33 peptide: GVYDGEWHSV

[34] = target: T34, MAGE-B2 peptide, G1I peptide on HLA-A*02:01 (human)
T34 peptide: IVYDGEEHSV

[35] = target: T35, MAGE-B2 peptide, E7K peptide on HLA-A*02:01 (human)
T35 peptide: GVYDGEKHSV

[36] = target: T36, MAGE-B2 peptide, V10T peptide on HLA-A*02:01 (human)
T36 peptide: GVYDGEEHST

[37] = target: T37, MAGE-B2 peptide, E7P peptide on HLA-A*02:01 (human)
T37 peptide: GVYDGEPHSV

[38] = target: T38, MAGE-B2 peptide, D4E peptide on HLA-A*02:01 (human)
T38 peptide: GVYEGEEHSV

[39] = target: T39, MAGE-B2 peptide, G5M peptide on HLA-A*02:01 (human)
T39 peptide: GVYDMEEHSV

[40] = target: T40, MAGE-B2 peptide, G5A peptide on HLA-A*02:01 (human)
T40 peptide: GVYDAEEHSV

[41] = target: T41, MAGE-B2 peptide, E7R peptide on HLA-A*02:01 (human)
T41 peptide: GVYDGERHSV

Measured: binding result

B1: TCR2 (TCR, V domains shown)
Valpha: QKEVEQNSGPLSVPEGAIASLNCTYSDRGSQSFFWYRQYSGKSPELIMSIYSNGDKEDGRFTAQLNKASQYVSLLIRDSQPSDSATYLCAVNIPFSNSGGYQKVTFGTGTKLQVIP
Vbeta: NAGVTQTPKFRVLKTGQSMTLLCAQDMNHEYMYWYRQDPGMGLRLIHYSVGEGTTAKGEVPDGYNVSRLKKQNFLLGLESAAPSQTSVYFCASRHPGQYNQPQHFGDGTRLSIL
no recognition: [31]
not listed: [34] | [35] | [36] | [37] | [38] | [39] | [40] | [41]
recognises: all other assays above

B2: TCR1 (TCR, V domains shown)
Valpha: KQEVTQIPAALSVPEGENLVLNCSFTDSAIYNLQWFRQDPGKGLTSLLLIQSSQREQTSGRLNASLDKSSGRSTLYIAASQPGDSATYLCAAMKTSYDKVIFGPGTSLSVIP
Vbeta: GEEVAQTPKHLVRGEGQKAKLYCAPIKGHSYVFWYQQVLKNEFKFLISFQNENVFDETGMPKERFSAKCLPNSPCSLEIQATKLEDSAVYFCASSQGQGGYGYTFGSGTRLTVV
recognises: [34] | [35] | [36] | [37] | [12] | [38] | [39] | [27] | [32]

B3: TCR3 (TCR, V domains shown)
Valpha: AQKVTQAQTEISVVEKEDVTLDCVYETRDTTYYLFWYKQPPSGELVFLIRRNSFDEQNEISGRYSWNFQKSTSSFNFTITASQVVDSAVYFCALSVLRMDSSYKLIFGSGTRLLVRP
Vbeta: NAGVTQTPKFRVLKTGQSMTLLCAQDMNHEYMYWYRQDPGMGLRLIHYSVGEGTTAKGEVPDGYNVSRLKKQNFLLGLESAAPSQTSVYFCASSLQGAGQPQHFGDGTRLSIL
not listed: [12] | [27] | [32] | [34] | [36] | [38] | [39]
recognises: all other assays above
